Here are results for ten molecules from article PMC4335062, “Data-Driven Prediction and Design of bZIP Coiled-Coil Interactions” (PLoS Computational Biology, 2015).

Like-named read-outs stand apart in the source and are kept apart here. Where no end group is shown, it is not given here.

The target of experiment [1] is T1, ATF3 (Homo sapiens, UniProt P18847).
T1 construct: made in house
T1 sequence (P18847 86-149 limits assumed): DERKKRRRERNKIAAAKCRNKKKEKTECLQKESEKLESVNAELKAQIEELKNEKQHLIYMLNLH
The experiment in a line: Direct-binding FRET assay. To be noted: C-terminal rhodamine design, mean or single, read-out: Kd. On the procedure:
(§1) The direct binding assay was performed manually in 384-well plates and is similar to a previously described assay. Wells were filled with 20 μL of 1 mM TCEP-HCl. A 4 μM stock of acceptor protein was made fresh in 1 mM TCEP-HCl, and 20 μL was titrated in 2-fold dilutions over the wells. […] The direct-binding FRET data were fit as previously described. Briefly, the Kd of the designed peptide homodimer was experimentally determined and used with previously determined target homodimer Kd values to determine the heterodimer Kd. The homodimer Kd values used for the human bZIPs were from; experiments done by […] et al. used the same protein constructs for the human bZIP proteins, the same buffer conditions, and the same assay. The fitting used a system of ordinary differential equations to describe the concentrations of homo and heterodimers formed by the donor (D) and acceptor (A) as a function of the heterodimer Kd. MATLAB was used to simulate the binding experiment for different Kd values, and the value that gave the best agreement between simulation and experiment was assigned. A minimum 15% change in the donor fluorescence upon titrating the acceptor peptide from 0 to 1000 nM was required for a fit to be attempted. If this minimum was not met, the interaction was classified as “NS” for no signal change. […] For such curves, we removed the first five points and re-fit the data.

The target of experiment [2] is T2, XBP1 (Homo sapiens, UniProt P17861).
T2 construct: made in house
T2 sequence (P17861 70-133 limits assumed): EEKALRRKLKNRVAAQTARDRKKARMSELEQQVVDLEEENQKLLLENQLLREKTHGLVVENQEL
The experiment in a line: Direct-binding FRET assay. To be noted: C-terminal rhodamine design. As for the experimental part:
as §1

The target in experiment [3] is JUN (Homo sapiens, UniProt P05412). Put plainly: Direct-binding FRET assay. More on the design: made in house. The note with it: 37°C; C-terminal rhodamine design; mean or single; read-out: Kd. On the procedure:
as §1

Experiment [4] addresses XBP1 bZIP (Homo sapiens) (UniProt P17861). To be noted: cited from earlier work.
Experiment [5] addresses partner bZIP coiled coil (Protein2). To be noted: cited from earlier work. As for the experimental part: Supplement pcbi.1004046.s020.csv, table | column: Kd || Fig 4 Designed bZIP-binding peptides inhibit interactions of native bZIP dimers. […] The dissociation constants at the indicated temperatures are Kd ≤ 1 nM for FOS-JUN, Kd ≤1 nM for XBP1-CREBZF, and Kd = 60 nM for ATF4-FOS, according to [18]. Fluorescence intensities were measured at both 37°C and 23°C, a ...

The target in experiment [6] is BATF2 bZIP, C-terminally fluoresceinated (human) (UniProt Q8N1L9). Put plainly: FRET or BRET; direct-binding FRET at 4°C; 10 nM fluorescein-labelled bZIP (donor), rhodamine-labelled design (acceptor) titrated 0 to 1 μM; 150 mM KCl, 50 mM potassium phosphate pH 7.4, 0.1% Tween-20, 0.1% BSA.
Chain of BATF2 bZIP, C-terminally fluoresceinated (human) (Q8N1L9 whole entry): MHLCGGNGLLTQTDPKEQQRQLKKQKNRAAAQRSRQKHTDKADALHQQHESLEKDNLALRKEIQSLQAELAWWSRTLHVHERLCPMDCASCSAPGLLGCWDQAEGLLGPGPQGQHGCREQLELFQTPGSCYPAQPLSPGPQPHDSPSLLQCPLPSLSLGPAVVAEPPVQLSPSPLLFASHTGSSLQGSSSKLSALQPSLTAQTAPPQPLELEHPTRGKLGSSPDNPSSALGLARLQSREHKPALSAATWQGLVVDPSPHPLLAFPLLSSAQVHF
The target in experiment [7] is T3, Activating Transcription Factor 4 (ATF4) bZIP construct, C-terminally fluoresceinated (human, UniProt P18848 278-351, fluorescein at the C-terminus).
T3 construct: source: previously described, donated by A.W. Reinke [18]
T3 sequence (looked up): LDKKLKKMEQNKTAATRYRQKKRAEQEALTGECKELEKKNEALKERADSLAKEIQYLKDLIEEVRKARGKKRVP
The experiment in a line: FRET or BRET; direct-binding FRET at 37°C; 10 nM fluorescein-labelled bZIP (donor), rhodamine-labelled design (acceptor) titrated 0 to 1 μM; 150 mM KCl, 50 mM potassium phosphate pH 7.4, 0.1% Tween-20, 0.1% BSA. The note with it: both partners purified. In general terms: Bioluminescence resonance energy transfer reports proximity on the nanometre scale.

Broadly, the Kd is the constant that tells how readily two partners part at equilibrium.

With “KDAASLENKKEELKVQNRILVDERKYLQMMNSELKDELAAHE [ATF3-d3]”, the Kd in experiment [1] (4°C) is 117 nM; in experiment [1] (37°C) it was at least 5000 nM.
For “AETDQLENRVKDLKKKNESLKEEKRQASNKYKALLTNNRSLKVKA [XBP1-d2]”, the dissociation constant Kd in experiment [2] (37°C, mean or single, read-out: Kd) was at least 5000 nM. Also, in experiment [2] (4, 23 or 37°C), the “binding to XBP1” value is recorded as “did not bind detectably”.
For the molecule “NLVAQLEKKNEALKAENAALEIERIQLQDKIEELKYELAAIE [ATF3-d2]”, the Kd in experiment [1] (37°C) was 564 nM.
As for “QRALQLQKEKERLEKMNKKLAAEIESLLEERERLESVLNYHE [JUN-d2]”, the Kd in experiment [3] stood at 1 nM.
As to XBP1 bZIP (from UniProt P17861), the Kd in experiment [4] was 8 nM.
As to “NDLARLENKAEELKVQNRILVDERKYLQREISELHDELAAHE [ATF3-d1]”, the Kd in experiment [1] (37°C) is about 1000 nM.

B1: ATF2: native human bZIP coiled coil (protein)
chain: MKFKLHVNSARQYKDLWNMSDDKPFLCTAPGCGQRFTNEDHLAVHKHKHEMTLKFGPARNDSVIVADQTPTPTRFLKNCEEVGLFNELASPFENEFKKASEDDIKKMPLDLSPLATPIIRSKIEEPSVVETTHQDSPLPHPESTTSDEKEVPLAQTAQPTSAIVRPASLQVPNVLLTSSDSSVIIQQAVPSPTSSTVITQAPSSNRPIVPVPGPFPLLLHLPNGQTMPVAIPASITSSNVHVPAAVPLVRPVTMVPSVPGIPGPSSPQPVQSEAKMRLKAALTQQHPPVTNGDTVKGHGSGLVRTQSEESRPQSLQQPATSTTETPASPAHTTPQTQSTSGRRRRAANEDPDEKRRKFLERNRAAASRCRQKRKVWVQSLEKKAEDLSSLNGQLQSEVTLLRNEVAQLKQLLLAHKDCPVTAMQKKSGYHTADKDDSSEDISVPSSPHTEAIQHSSVSTSNGVSSTSKAEAVATSVLTQMADQSTEPALSQIVMAPSSQSQPSGS
modifications: fluorescein at the C-terminus (FRET donor) or TAMRA (FRET acceptor), by assay
notes: native human bZIP coiled coil
For B1, the Kd was 5000 nM in experiment [5] (Protein2 = ATF6 (HS), intra, 5000 assigned if Kd >5,000 nM or no binding) and 5000 nM in experiment [5] (Protein2 = CE20 (CE), inter, 5000 assigned if Kd >5,000 nM or no binding).

B2: ATF5-d1, rhodamine-labelled at the C-terminus (designed binder)
chain: GESKEYKKGSGSKRIAYLRQRIAELRNENHVLESRIQRMEKEKDALQQDRDHLEYELGC(Rhodamine Red C2‑maleimide)
notes: solubility linker after the His tag; added at the C-terminus for labelling; source: E. coli RP3098, purified (Ni-NTA under denaturing conditions, reverse-phase HPLC)
For B2, in experiment [6], the FRET efficiency was 0.31. The molecule also showed a Kd in experiment [7] of 4.9 ± 1 nM.

B3: ATF5: native human bZIP coiled coil (protein)
chain: MSLLATLGLELDRALLPASGLGWLVDYGKLPPAPAPLAPYEVLGGALEGGLPVGGEPLAGDGFSDWMTERVDFTALLPLEPPLPPGTLPQPSPTPPDLEAMASLLKKELEQMEDFFLDAPPLPPPSPPPLPPPPLPPAPSLPLSLPSFDLPQPPVLDTLDLLAIYCRNEAGQEEVGMPPLPPPQQPPPPSPPQPSRLAPYPHPATTRGDRKQKKRDQNKSAALRYRQRKRAEGEALEGECQGLEARNRELKERAESVEREIQYVKDLLIEVYKARSQRTRSC
modifications: fluorescein at the C-terminus (FRET donor) or TAMRA (FRET acceptor), by assay
notes: native human bZIP coiled coil
Turning to B3, the Kd was 27.8 nM in experiment [5] (Protein2 = CEBPE (HS), intra) and 551 nM in experiment [5] (Protein2 = CI20 (CI), inter).

B4: ATF5-d1, rhodamine-labelled at the N-terminus (designed binder)
chain: GESKEYKKGSGSC(Rhodamine Red C2‑maleimide)GKRIAYLRQRIAELRNENHVLESRIQRMEKEKDALQQDRDHLEYEL
In the case of B4, the FRET efficiency in experiment [6] worked out at 0.65.
